Experimental data taken from PMC3782296 (Journal of molecular biology, 2011).

Target: the molecule itself
Assay: cross-linking

B1: wild-type human Tom40A lacking amino acid residues 1 to 82 (hTom40AΔ1-82) (domain or fragment, UniProt O96008 83-361, looked up)
chain: FEECHRKCKELFPIQMEGVKLTVNKGLSNHFQVNHTVALSTIGESNYHFGVTYVGTKQLSPTEAFPVLVGDMDNSGSLNAQVIHQLGPGLRSKMAIQTQQSKFVNWQVDGEYRGSDFTAAVTLGNPDVLVGSGILVAHYLQSITPCLALGGELVYHRRPGEEGTVMSLAGKYTLNNWLATVTLGQAGMHATYYHKASDQLQVGVEFEASTRMQDTSVSFGYQLDLPKANLLFKGSVDSNWIVGATLEKKLPPLPLTLALGAFLNHRKNKFQCGFGLTIG
stoichiometry N: 2
